Laboratory results taken from patent US20240158497A1 (published 2024).

T1: mutant human LEPR (Y1141F) on HEK293.STAT3.Luc.GP130.hLEPR (Y1141F) cells (human, UniProt P48357 22-1165)
T1 sequence (looked up): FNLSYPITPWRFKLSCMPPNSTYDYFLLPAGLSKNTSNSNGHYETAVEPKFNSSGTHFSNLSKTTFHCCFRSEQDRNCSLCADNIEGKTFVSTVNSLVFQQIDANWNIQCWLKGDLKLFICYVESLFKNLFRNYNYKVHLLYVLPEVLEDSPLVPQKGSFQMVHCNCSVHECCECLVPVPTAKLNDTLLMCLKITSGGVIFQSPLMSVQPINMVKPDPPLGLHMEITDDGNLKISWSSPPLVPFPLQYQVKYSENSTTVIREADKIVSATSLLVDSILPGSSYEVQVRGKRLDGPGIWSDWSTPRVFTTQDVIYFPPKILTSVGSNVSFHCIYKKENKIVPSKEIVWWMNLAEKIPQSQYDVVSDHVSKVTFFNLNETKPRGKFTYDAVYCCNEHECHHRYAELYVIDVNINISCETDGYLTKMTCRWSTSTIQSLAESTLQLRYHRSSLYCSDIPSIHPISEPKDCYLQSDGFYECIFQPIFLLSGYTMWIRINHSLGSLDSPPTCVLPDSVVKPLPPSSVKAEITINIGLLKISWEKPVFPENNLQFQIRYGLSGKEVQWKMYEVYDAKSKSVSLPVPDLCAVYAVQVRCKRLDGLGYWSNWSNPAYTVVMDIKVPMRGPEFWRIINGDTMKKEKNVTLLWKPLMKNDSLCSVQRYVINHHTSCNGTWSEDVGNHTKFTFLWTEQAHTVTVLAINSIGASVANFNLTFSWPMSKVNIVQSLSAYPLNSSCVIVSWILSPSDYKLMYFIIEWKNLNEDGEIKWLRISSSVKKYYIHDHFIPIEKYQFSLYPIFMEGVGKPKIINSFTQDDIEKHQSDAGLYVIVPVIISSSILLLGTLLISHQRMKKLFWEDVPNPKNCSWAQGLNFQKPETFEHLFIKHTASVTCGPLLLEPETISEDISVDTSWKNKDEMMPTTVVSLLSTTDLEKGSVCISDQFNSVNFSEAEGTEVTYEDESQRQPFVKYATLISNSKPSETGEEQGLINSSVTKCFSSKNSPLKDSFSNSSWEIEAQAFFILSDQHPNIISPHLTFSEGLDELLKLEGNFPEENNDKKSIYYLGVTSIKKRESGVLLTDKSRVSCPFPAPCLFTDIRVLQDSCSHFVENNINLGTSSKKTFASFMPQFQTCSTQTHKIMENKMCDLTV

T2: Macaca Fascicularis GP130 extracellular domain expressed with a C-terminal myc-myc-hexahistidine tag (Macaca fascicularis, UniProt P40189 23-619 (human entry))
T2 construct: also called mfGP130-MMH; mfGP130-mmH
T2 chain: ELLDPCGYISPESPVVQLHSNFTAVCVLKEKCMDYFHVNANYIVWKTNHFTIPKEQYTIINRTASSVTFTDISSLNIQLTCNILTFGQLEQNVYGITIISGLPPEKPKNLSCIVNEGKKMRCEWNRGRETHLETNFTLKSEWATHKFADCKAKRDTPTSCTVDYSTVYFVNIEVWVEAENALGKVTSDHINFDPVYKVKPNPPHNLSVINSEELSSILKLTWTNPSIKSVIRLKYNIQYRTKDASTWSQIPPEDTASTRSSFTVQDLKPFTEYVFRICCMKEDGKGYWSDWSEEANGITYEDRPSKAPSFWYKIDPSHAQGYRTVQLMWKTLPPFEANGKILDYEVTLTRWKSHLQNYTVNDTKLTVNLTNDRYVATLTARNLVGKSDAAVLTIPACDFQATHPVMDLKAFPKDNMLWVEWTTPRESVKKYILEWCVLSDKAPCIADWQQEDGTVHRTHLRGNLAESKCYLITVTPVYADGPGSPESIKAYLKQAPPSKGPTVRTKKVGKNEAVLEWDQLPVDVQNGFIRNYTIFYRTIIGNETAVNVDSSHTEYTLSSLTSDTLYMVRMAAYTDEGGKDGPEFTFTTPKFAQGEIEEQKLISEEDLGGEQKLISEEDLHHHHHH


How the values were obtained:
[1] = biological target: T1, mutant human LEPR (Y1141F) on …; assay: cell-based or functional assay
[2] = biological target: T3, human GP130 extracellular domain expressed with a C-terminal myc-myc-hexahistidine tag (human, UniProt P40189 23-619); assay: SPR, bsAb captured by anti-hFc, 25C
T3 construct: also called hGP130-MMH; hGP130-mmH
Summary of the method: (§1)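 Anti-hFc-captured bispecific antibodies received 3-fold serial dilutions of LEPR or GP130 (100 nM–3.7 nM) in HBS-ET, pH 7.4, injected for 4 min with 10 min dissociation at 25 °C or 37 °C. ka and kd came from a 1:1 binding model with mass transport limitation, and KD and t½ were calculated from these rate constants.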

[3] = biological target: T2, Macaca Fascicularis GP130 extracellular …; assay: SPR, bsAb captured by anti-hFc, 25C
Summary of the method: as §1

| Binder | EC50 (M), STAT3-luciferase activation of HEK293.STAT3.Luc.GP130.hLEPR (Y1141F) cells, 10 nM leptin [1] [M] | 100 nM hGP130-MMH Bound (RU) [2] [RU] | Kd [2] [nM] | koff [2] [s⁻¹] | kon [2] [M⁻¹ s⁻¹] | t½ [2] [min] | 100 nM mfGP130-MMH Bound (RU) [3] [RU] | Kd [3] [nM] | koff [3] [s⁻¹] | kon [3] [M⁻¹ s⁻¹] | t½ [3] [min] |
| --- | --- | --- | --- | --- | --- | --- | --- | --- | --- | --- | --- |
| bsAb21236D (bispecific antibody, V domains shown, LEPR x GP130 bispecific with common light chain; also called H4H21236D; bsAb21236 (LEPR × GP130)) VH 1: QVQLQESGPGLVKPSQTLSLTCTVSGGSISSGGDYWSWIRQLPGKGLEWIGYIYYSGSAYYNPSLKSRGTISIDTSKNQFSLKLTSVTAADTAVYFCVKLRFLEWFLGGWFGPWGQGTLVTVSS VH 2: QVQLVESGGGLVKPGGSLRLSCAASGFTFSDYYMTWIRQTPGKGLDWVSYISSSGTNKYNADSVKGRFTISRDNAKNSLYLQMNSLRAEDTAVYYCVRDPPWGMDVWGQGTTVTVSS VL: not shown | 2.11e-09 | 12 | 140 | 0.00426 | 30300 | 2.7 | 21 | 104 | 0.00305 | 29400 | 3.8 |
| bsAb21237D (bispecific antibody, V domains shown, LEPR x GP130 bispecific with common light chain; also called H4H21237D; bsAb21237 (LEPR × GP130)) VH 1: EVQLVESGGGLVQPGGSLRLSCAASGFTFSNYGMTWVRQAPGKGLEWVSAITGGGGSTYYSNSVKGRFTISRDNSKNTVYLRMNSVRAEDTAVYYCAKYKWNFVDDWGQGTTVTVSS VH 2: QVQLVESGGGLVKPGGSLRLSCAASGFTFSDYYMTWIRQTPGKGLDWVSYISSSGTNKYNADSVKGRFTISRDNAKNSLYLQMNSLRAEDTAVYYCVRDPPWGMDVWGQGTTVTVSS VL: not shown | 2.46e-09 | 17 | 55.2 | 0.00274 | 49600 | 4 | 18 | 53.4 | 0.00213 | 39800 | 5 |
